US20230039941A1, “ENZYME ENHANCED ROOT UPTAKE OF AGROCHEMICAL ACTIVE COMPOUND” (BASF SE, priority 2019, published 2023)
Positions count from the first letter of the chain named. Marks after values point to notes of the source that are not given here.

What was measured:
canola seedlings = assay: Uptake of the active ingredient in canola seedling cotyledons after seed treatment with or without cutinase; type: in vivo; settings: for Al Uptake (%) / Mean Al Uptake (ng/mg leaf): Cotyledon analysis seven days after planting; for Al Uptake (%): calculated based on spiked control, 22340 ng/replicate; for Mean Al Uptake (ng/mg leaf): normalized using mean % Al recovery (90.9%) and mean % coating efficiency
Experimental: (§1) Canola seeds were treated with formulated product diluted in water by spinning 100 g seed in a 1-liter HEGE bowl while applying treatment slurry. Seeds were spun until dry.
(§2) On the day of planting, 24-well plates (10 mL, nonsterile) were filled with a highly organic plug & seedling mix. Water was uniformly applied to the soil surface using a spray nozzle until just before complete saturation of soil column. Soil was tamped down to a level of 1 cm below plate surface. One treated seed was placed on the soil surface of each well and then covered with potting mixture leveled to the plate surface. The top soil surface was sprayed once more to moisten. Plates were then held in an incubator and top-watered as needed with fertilizer water (NPK 16-4-20-3(Ca)-1(Mg)) via spray nozzle. Seven days after planting, both cotyledons from ten plants were sampled for analysis by clipping the point where cotyledon meets stem. Replication was 10×.
(§3) The seed/excised cotyledons were extracted with acetonitrile solvent (3 mL, containing 1% acetic acid) by homogenization in Teflon tubes using 2010 Geno/Grinder (Spex Sample Prep) for 2 min at 1200 RPM. The homogenate was then mixed with anhydrous sodium sulphate (˜600 mg), sodium acetate (˜100 mg) and vortexed well before centrifugation using Beckman Coulter (Allegra X-14R) centrifuge for 5 min at 3000 RPM. The clear supernatant was then transferred into appropriate vials for LC/MS analysis.
(§4) LCMS analyses were performed using Thermo Fisher Scientific Extractive Orbitrap Mass Analyzer with electrospray positive mode of ionization. Thermo Fisher Scientific Surveyor MS Plus Pump and autosampler were used for the chromatographic runs through a column (Sonoma-C18, 2.1×100 mm, 5 μm). The gradient started with 98:2 Water/MeOH (containing 4 mM ammonium formate and 0.1% formic acid) and ending with 98:2 MeOH/Water in about 10 min.

[1] = as above; type: in vivo; settings: canola, cotyledons (leaf), other: seed treatment (slurry applied to seeds), 20.1 μg/seed; Cotyledon analysis seven days after planting; normalized using mean % Al recovery (90.9%) and mean % coating efficiency; read-out: Mean Al Uptake (ng/mg leaf)
Experimental: as §1, §2, §3, §4

wheat seedlings = assay: Clothianidin uptake in wheat seedlings (cotyledon analysis) after seed treatment with cutinases; type: in vivo, Triticum sp.; settings: for Average of clothianidin detected on 15 pairs of wheat cotyledons: wheat seed treatment with clothianidin plus enzyme-containing cell extract; for % Clothianidin uptake in wheat cotyledons: wheat seed treatment, one way ANOVA test (P = 0.002); for percent clothianidin uptake in wheat seedlings, effect of cutinase seed treatment: P=0.002
Experimental: a. Seed treatment: Formulations were diluted and enzymes were dissolved in HPLC water. Solutions were made and mixed immediately before each treatment. For each treatment, 100 g of spring wheat seeds (Triticum sp.) were placed in a 1-L bowl of a HEGE 11 seed treater. Treatment slurry was applied to spinning seeds in an application volume of 1.5 mL including 2.05 mg of lyophilized enzyme-containing cell extracts and seeds were spun until dry. Directly after treatment, seeds were transferred to paper seed pouches and stored in a cooler filed with ice packs until planting.
b. Plant incubation: Before seed treatment, 24-well plates were filled with RediEarth potting mixture sifted through a 3.35-mm mesh sieve. Tap water was uniformly applied to the soil surface using a conical spray nozzle until just before complete saturation of soil column (˜55 mL/plate). The soil was tamped down to a level of 1 cm below plate surface. One hour after treatment, one seed was placed on the soil surface of each well. RediEarth was sifted directly over the wells and the soil line was levelled to the plate surface. The soil surface was moistened again with ˜22 mL water/plate. Plates were then held in a randomized complete block design in an incubator at 25° C., 50% RH containing two FloraSun (F25T8 Plant Growth) lights at 14L:10D. Replication was 10 plates per treatment.
d. Cotyledon analysis: Fifteen excised pairs of wheat cotyledons were extracted (10× replicates) with acetonitrile solvent (10 mL, containing 1% acetic acid) by homogenization. The homogenate is first centrifuged to bring down the solvent/material sticking to the cap using Beckman Coulter (Allegra X-14R) centrifuge for 3 min at 3000 RPM. The collected homogenate is then treated with anhydrous magnesium sulfate (˜3500 mg), sodium acetate (˜220 mg) and vortexed well (˜30s) before further centrifugation for the same duration as above. The supernatant clear solution is then transferred into appropriate vials for LC/MS analysis without further dilution.
Control samples were prepared by spiking a known amount std clothianidin into 15 pairs of cotyledons (10 replicates) collected from the seedlings of untreated […] seeds and homogenized and processed as above. The recovery of the AI was quantified from the LC/MS data and then used to normalize the results from treated cotyledon sample sets.
as §4, with “Q-Exactive” for “Extractive Orbitrap”, “u).” for “μm).”

With `C[n+]1c([O-])c(-c2ccccc2)c(=O)n2c1SC[C@@H]2c1cnc(Cl)s1` [(3R)-3-(2-chlorothiazol-5-yl)-8-methyl-5-oxo-6-phenyl-2,3-dihydrothiazolo[3,2-a]pyrimidin-8-ium-7-olate] the “Al Uptake (%)” value (canola seedlings) was 0.40% and the concentration at 7 days after planting [1] was 2290 ng/g.

In the case of `CN/C(=N\[N+](=O)[O-])NCc1cnc(Cl)s1` [clothianidin, reference compound], the “Average of clothianidin detected on 15 pairs of wheat cotyledons” value (shortened to “Average of clothianidin detected”) (wheat seedlings) is reported as 9.4 ± 2.0 ng and the “% Clothianidin uptake in wheat cotyledons” value (“% Clothianidin uptake” for short) (wheat seedlings) is reported as 0.39 ± 0.08^a %.

B1: CUT-4: Cutinase according to SEQ No. 4, Pseudomonas mendocina (94%), NCBI WP_096825365.1 (protein)
chain: APLPDTPGAPFPSVSNFDRSGPYATTSRSEGPNCRVYRPATLGQNGVRHPIVLWGNGTGTGPTAYSGLLSHWASHGFVVAAAETSNAGTGEQMLACLDYLVQESNRTYGTYVGVLNTGRVGTSGHSQGGGGSIMAGQDERVSVTAPIQPYTIGLGHDSASQRNQQGPMFLMSGGGDTIAFPYLNAQPVYTRANVPVFWGERRYVSHFEPVGDGGAYRGPSTAWFRYHLMEDETARSTFYGRFCGLCTSVLWTEERKDIE
modifications: Pseudomonas sp. SST3; Cutinase 9
With B1 the “percent clothianidin uptake in wheat seedlings, effect of cutinase seed treatment” value (“percent clothianidin uptake” for short) (wheat seedlings) was “improvement was not significant”, the “Average of clothianidin detected” value (wheat seedlings) was 10.8 ± 2.1 ng and the “% Clothianidin uptake” value (wheat seedlings) was 0.44 ± 0.09^a %. For the same molecule, the “Al Uptake (%)” value (canola seedlings) was 0.43% and the “Mean Al Uptake (ng/mg leaf)” value (canola seedlings) was 2.16 ng/mg leaf.

B2: CUT-1: Cutinase according to SEQ No. 1, biological source Pseudomonas mendocina (US5545547A) (protein, listed as Pseudomonas mendocina)
chain: APLPDTPGAPFPAVANFDRSGPYTTSSQSEGPSCRIYRPRDLGQGGVRHPVILWGNGTGAGPSTYAGLLSHWASHGFVVAAAETSNAGTGREMLACLDYLVRENDTPYGTYSGKLNTGRVGTSGHSQGGGGSIMAGQDTRVRTTAPIQPYTLGLGHDSASQRRQQGPMFLMSGGGDTIAFPYLNAQPVYRRANVPVFWGERRYVSHFEPVGSGGAYRGPSTAWFRFQLMDDQDARATFYGAQCSLCTSLLWSVERRGL
modifications: Cutinase 1
In the case of B2, the “percent clothianidin uptake” value (wheat seedlings) is reported as “significantly enhanced”, the “Average of clothianidin detected” value (wheat seedlings) is reported as 12.5 ± 3.2 ng and the “% Clothianidin uptake” value (wheat seedlings) is reported as 0.59 ± 0.15^b %. The “Al Uptake (%)” value (canola seedlings) was 0.60%, the “Mean Al Uptake (ng/mg leaf)” value (canola seedlings) was 3.04 ng/mg leaf and the “mean AI uptake (ng/mg leaf) compared with no enzyme control” value (canola seedlings; canola cotyledon analysis) was “significantly higher than no enzyme control”. The “percent of AI uptake compared with no enzyme control” value (canola seedlings; canola cotyledon analysis) was “significantly higher than no enzyme control”.

B3: CUT-2: Cutinase according to SEQ No. 2, biological source Pseudomonas mendocina (PDB 2FX5_A) (protein, listed as Pseudomonas mendocina)
chain: B2 chain with T25V
modifications: Cutinase 2
For B3, the “percent clothianidin uptake” value (wheat seedlings) was “improvement was not significant”, the “Average of clothianidin detected” value (wheat seedlings) was 11.9 ± 3.4 ng and the “% Clothianidin uptake” value (wheat seedlings) was 0.53 ± 0.15^ab %. The “Al Uptake (%)” value (canola seedlings) was 0.39% and the “Mean Al Uptake (ng/mg leaf)” value (canola seedlings) was 1.87 ng/mg leaf.
